Reference: US20240425593A1 (SICHUAN KELUN BIOTECH BIOPHARMACEUTICAL, published 2024)
Numbering of substitutions follows the chain as printed. Names may count otherwise.

T1: monkey PD-1-hFc (monkey)
T1 construct: Extracellular domain of monkey PD-1 fused to an hFc tag, made in house; not shown: The hFc tag and any linker
T1 chain: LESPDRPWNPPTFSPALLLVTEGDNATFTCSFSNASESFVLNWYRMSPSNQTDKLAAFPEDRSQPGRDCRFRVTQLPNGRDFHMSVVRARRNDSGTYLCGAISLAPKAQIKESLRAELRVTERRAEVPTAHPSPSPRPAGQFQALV

B1: chimeric antibody 14A4-CH (antibody, human IgG4 S228P, kappa, V domains shown)
VH: EVQLVESGGGLVKPGGSLKLSCAASGFTFSSYGMSWGRQTPEKRLEWVATISGGGSDTYYPDSVKGRFTISRDNVKNNLYLQMSSLRSEDTALYYCARQYGITWFAYWGQGTLVTVSA
VL: not shown
notes: Murine 14A4 variable regions fused to the IgG4 (S228P) heavy chain constant region and the human kappa constant region
B2: chimeric antibody 91D5-CH (antibody, human IgG4 S228P, kappa, V domains shown)
VH: EVQLQQSGPELVKPGASVKISCRASGYTFTDYYMNWVKESHGKSLEWIGEINPKYGDTTYNQKFKDKATLTVDKSSSTASVELRSLTSEDSAVYYCAKGIRLFDSWGQGTTVTVSS
VL: DIQLTQSPASLSASVGETVTITCRPSGNVHNYFAWYQQKQGKSPQLLVYNAKTLAEGVPSRFSGSGSGTQYSLKINSLQPEDFGTYYCHHYYTAPFTFGSGTKLEIKR
notes: Murine 91D5 variable regions fused to the IgG4 (S228P) heavy chain constant region and the human kappa constant region
B3: chimeric antibody 35E6-CH (antibody, human IgG4 S228P, kappa)
heavy: not shown
light: CIVLTQSPASLAVSLGQSVTISCRASESVEYYGTNLMQWYQQKPGQPPKLLIYFASNVASGVPARFSGSGSGTDFSLNIHPVEGDDIARYFCQQSKKVPSTFGGGTKLEIKRTVAAPSVFIFPPSDEQLKSGTASVVCLLNNFYPREAKVQWKVDNALQSGNSQESVTEQDSKDSTYSLSSTLTLSKADYEKHKVYACEVTHQGLSSPVTKSFNRGEC
notes: Murine 35E6 variable regions fused to the IgG4 (S228P) heavy chain constant region and the human kappa constant region
B4: chimeric antibody 29C6-CH (antibody, human IgG4 S228P, kappa, V domains shown)
VH: QVQLEESGPELVKPGASVKISCKTSGYTFTEYTIYWVKQSHGKSLEWIGGINPKNGATLYNQKFKVKATLTVDKSSSTAYMELRSLTSEDSAVYYCVRDYHGNSHDSMDYWGQGTSVTVSS
VL: QIVLTQSPAIMSASPGEKVTITCSASSSVSYMHWFRQKPGTSPKLWIYYTSNLASGVPAHFSGSGSGTSYSLTISRMEAEDAATYYCQQRSDYPPTFGGGTKLEIKR
notes: Murine 29C6 variable regions fused to the IgG4 (S228P) heavy chain constant region and the human kappa constant region
B5: humanized antibody 29C6-HZ2 (antibody, human IgG4 S228P, kappa, V domains shown)
VH: QVQLVQSGVEVKKPGASVKVSCKTSGYTFTEYTIYWVRQAPGQGLEWIGGINPKNGATLYNQKFKVRATLTVDKSTTTAYMELKSLQFDDTAVYYCVRDYHGNSHDSMDYWGQGTTVTVSS
VL: EIVLTQSPATLSLSPGERATLSCSASSSVSYMHWFQQKPGQAPRLLIYYTSNLASGVPARFSGSGSGTDYTLTISSLEPEDFAVYYCQQRSDYPPTFGGGTKVEIKR
B6: humanized antibody 35E6-HZ1 (antibody, human IgG4 S228P, kappa)
heavy: not shown
light: EIVLTQSPATLSLSPGERATLSCRASESVEYYGTNLMQWYQQKPGQPPRLLIYFASNVASGIPARFSGSGSGTDFTLTISSLEPEDFAVYFCQQSKKVPSTFGQGTKVEIKRTVAAPSVFIFPPSDEQLKSGTASVVCLLNNFYPREAKVQWKVDNALQSGNSQESVTEQDSKDSTYSLSSTLTLSKADYEKHKVYACEVTHQGLSSPVTKSFNRGEC
B7: humanized antibody 91D5-HZ2 (antibody, human IgG4 S228P, kappa)
heavy: not shown
light: DIQLTQSPSSLSASVGDRVTITCRPSGNVHNYFAWYQQKPGKSPKLLVYNAKTLAEGVPSRFSGSGSGTDYTLTISSLQPEDFATYYCHHYYTAPFTFGGGTKVEIKRTVAAPSVFIFPPSDEQLKSGTASVVCLLNNFYPREAKVQWKVDNALQSGNSQESVTEQDSKDSTYSLSSTLTLSKADYEKHKVYACEVTHQGLSSPVTKSFNRGEC
B8: humanized antibody 91D5-HZ1 (antibody, human IgG4 S228P, kappa, V domains shown)
VH: EVQLVQSGAEVKKPGASVKVSCKASGYTFTDYYMNWVREAPGQGLEWMGEINPKYGDTTYAQKLQGRVTLTVDKSTSTAYMELSSLRSDDTAVYYCAKGIRLFDSWGQGTLVTVSS
VL: DIQLTQSPSSLSASVGDRVTITCRPSGNVHNYFAWYQQKPGKSPKLLVYNAKTLAEGVPSRFSGSGSGTDYTLTISSLQPEDFATYYCHHYYTAPFTFGGGTKVEIKR
B9: humanized antibody 29C6-HZ1 (antibody, human IgG4 S228P, kappa, V domains shown)
VH: B5 VH with V9A, K65Q, V66G, A68V, T77S, K84R, Q87R, F88S, T116L
VL: B5 VL with L46W

Target: T1, monkey PD-1-hFc
Assay: ELISA, coated monkey PD-1-hFc
Procedure: (§1) The specific experimental steps were as follows: human PD-1-hFc and monkey PD-1-hFc antigens were diluted to 1 μg/mL with CBS solution, then coated on a 96-well ELISA plate (purchased from Guangzhou Jiete Bio) at 4° C. overnight. […] After washing, a goat anti-human secondary antibody (FC) labeled with horseradish peroxidase diluted in phosphate buffer (PBS) containing 2% BSA in a ratio of 1:15000 was added, followed by incubating at 37° C. for 1 hour. After washing, the TMB chromogen solution was used for developing, and the absorbance value was read using a microplate reader at 450 nm, and the data were imported into Graphprism to calculate EC₅₀ values.

| Binder | EC50 [nM] |
| --- | --- |
| B1 | 0.171 |
| B2 | 0.235 |
| B3 | 0.198 |
| B4 | 0.171 |

target: T2, full-length human PD-1 on CHO-hPD-1 cells (human, UniProt Q15116 25-288); assay: competitive FACS on CHO-hPD-1 cells, competitor PD-L1-mFc-Bio
T2 construct: whole, on cells; also called PD-1 on the cell membrane surface of CHO-hPD-1
From the text: The data were imported into Graphprism to calculate IC₅₀ values.

| Binder | IC50 [ng/mL] |
| --- | --- |
| B1 | 0.75 |
| B2 | 0.96 |
| B3 | 1.58 |
| B4 | 1.7 |

target: T3, human PD-1-ECD-mFc (human; mouse, UniProt Q15116 25-170); assay: ELISA, coated antigen (column head: Human PD-1-mFc; text of Example 4.2: human PD-1-hFc)
T3 construct: extracellular domain; Made in HEK293F cells; also called human PD-1-mFc; PD-1-mFc; not shown: mouse Fc (mFc) amino acids, AB097847.1
Procedure: as §1

| Binder | EC50 [nM] |
| --- | --- |
| B1 | 0.082 |
| B2 | 0.09 |
| B3 | 0.103 |
| B4 | 0.115 |

target: T4, human PD-1-His (human, UniProt Q15116 25-170); assay: BLI (Octet ForteBio), antibody on ProA biosensor, human PD-1-His in solution
T4 construct: extracellular domain; not shown: His tag

| Binder | Kd [nM] | koff [s⁻¹] | kon [M⁻¹ s⁻¹] |
| --- | --- | --- | --- |
| B1 | 1.49 | 0.000206 | 138000 |
| B2 | 0.549 | 0.000143 | 261000 |
| B3 | 0.416 | 0.000123 | 296000 |
| B4 | 0.88 | 0.000198 | 226000 |

target: T4, human PD-1-His; assay: BLI (Octet ForteBio), human PD-1-His

| Binder | fold stronger affinity than the control antibody 1 [times] |
| --- | --- |
| B1 | 4.3 |
| B2 | 11.7 |
| B3 | 15.4 |
| B4 | 7.3 |

target: T5, PD-1 on Jurkat-PD-1-NFAT cells (UniProt Q15116 25-288, limits assumed); assay: cell-based or functional assay

| Binder | EC50 from the PD-1/PD-L1 luciferase reporter system [nM] |
| --- | --- |
| B5 | 5.74 |
| B6 | 3.63 |
| B7 | 4.47 |

target: T6, human PD-1-hFc (human, UniProt Q15116 25-170); assay: competitive ELISA, coated human PD-1-hFc, competitor hPD-L1-mFc
T6 construct: extracellular domain; Extracellular domain of human PD-1 fused to an hFc tag, made in house; not shown: hFc tag
Procedure: (§2) The specific experimental steps were as follows: human PD-1-hFc was diluted to 1 μg/mL with CBS solution, coated on a 96-well ELISA plate (purchased from Guangzhou Jiete Bio) at 4° C. overnight. After washing, 100 μL of phosphate buffer (PBS) containing 2% BSA was used for blocking at 37° C. for 1 hour. […] After washing, a goat anti-mouse secondary antibody labeled with HRP diluted in phosphate buffer (PBS) containing 2% BSA in a ratio of 1:15000 was added, followed by incubating at room temperature for 1 hour. After washing, the TMB chromogen solution was used for developing, and the absorbance value was read using a microplate reader at 450 nm, and the data were imported into Graphprism to calculate ICs values.

| Binder | IC50 [nM] |
| --- | --- |
| B1 | 1.12 |
| B2 | 1.23 |
| B3 | 1.6 |
| B4 | 1.73 |

target: T4, human PD-1-His; assay: BLI (Octet ForteBio), antibody on ProA biosensor, PD-1-His in solution

| Binder | Kd [nM] | koff [s⁻¹] | kon [M⁻¹ s⁻¹] |
| --- | --- | --- | --- |
| B2 | 0.547 | 0.000177 | 324000 |
| B4 | 0.516 | 0.000166 | 322000 |
| B5 | 1.65 | 0.000454 | 275000 |
| B6 | 1.31 | 0.000517 | 395000 |
| B8 | 1.89 | 0.00053 | 281000 |
| B7 | 1.5 | 0.000472 | 315000 |

target: T6, human PD-1-hFc; assay: competitive ELISA, coated human PD-1-hFc, competitor hPD-L2-mFc
Procedure: as §2

| Binder | IC50 [nM] |
| --- | --- |
| B1 | 1.17 |
| B2 | 1.39 |
| B3 | 1.78 |
| B4 | 1.97 |

target: T5, PD-1 on Jurkat-PD-1-NFAT cells; assay: cell-based or functional assay; remark: another data set of the same source

| Binder | EC50 (nM), cell activity for blocking PD-1/PD-L1 binding, luciferase reporter gene assay [nM] |
| --- | --- |
| B1 | 8.4 |
| B2 | 4.41 |
| B3 | 5.53 |
| B4 | 10.7 |

target: T6, human PD-1-hFc; assay: competitive ELISA, coated PD-1-hFc, competitor PDL1-mFc
Procedure: as §2

| Binder | IC50 [nM] |
| --- | --- |
| B2 | 0.96 |
| B3 | 0.88 |
| B4 | 1.15 |
| B9 | 3.11 |
| B5 | 0.88 |
| B6 | 0.94 |
| B8 | 1.19 |
| B7 | 1.13 |

target: T4, human PD-1-His; assay: ELISA, coated human PD-1-his
Procedure: as §1, with “To verify the affinity of the humanized PD-1 antibody to PD-1-His antigen, ELISA was employed. The” for “The”, “PD-1-his was” for “PD-1-hFc and monkey PD-1-hFc antigens were”, “anti-mouse” for “anti-human”, “nm. The” for “nm, and the”

| Binder | EC50 [nM] |
| --- | --- |
| B2 | 0.29 |
| B3 | 0.2 |
| B4 | 0.17 |
| B9 | 0.42 |
| B5 | 0.16 |
| B6 | 0.3 |
| B8 | 0.39 |
| B7 | 0.42 |

target: T6, human PD-1-hFc; assay: competitive ELISA, coated PD-1-hFc, competitor PDL2-mFc
Procedure: as §2

| Binder | IC50 [nM] |
| --- | --- |
| B2 | 1.08 |
| B3 | 1.11 |
| B4 | 1.31 |
| B9 | 3.63 |
| B5 | 0.95 |
| B6 | 1.15 |
| B8 | 1.25 |
| B7 | 1.22 |
